Data taken from US20240165282A1, “CONFORMATIONAL CONSTRAINED SOMATOSTATIN RECEPTOR 3 PEPTIDE LIGANDS AND THEIR CONJUGATES AND USES THEREOF” (STARGET PHARMA LTD., priority 2021, published 2024).
*1 amine or outer side, *2 acyl side, *3 side chain or, on linkers, in order; H or OH if unused. Bridges are numbered along the chain shown (N, C = ends). [ ]: non-standard residue; d: D form. The star is where a group is joined. DOTA = O=C(O)CN1CCN(CC(=O)O)CCN(CC(=O)*)CCN(CC(=O)O)CC1; N(2-mercaptoethyl)Gly = O=C(CN(CCS[*:3])[*:1])[*:2]

Assays:
CCR6 (human) = CCR6 (human) (UniProt P51684); test: cell-based or functional assay
OPRM1 (human) = OPRM1 (human) (UniProt P35372); test: cell-based or functional assay
CCR2 (human) = CCR2 (human) (UniProt P41597); test: cell-based or functional assay
HRH3 (human) = HRH3 (human) (UniProt Q9Y5N1); test: cell-based or functional assay
CCR1 (human) = CCR1 (human) (UniProt P32246); test: cell-based or functional assay
VIPR1 (human) = VIPR1 (human) (UniProt P32241); test: cell-based or functional assay
OPRL1 (human) = OPRL1 (human) (UniProt P41146); test: cell-based or functional assay
CMKLR1 (human) = CMKLR1 (human) (UniProt Q99788); test: cell-based or functional assay
ADRA2A (human) = ADRA2A (human) (UniProt P08913); test: cell-based or functional assay
CHRM3 (human) = CHRM3 (human) (UniProt P20309); test: cell-based or functional assay
CCR7 (human) = CCR7 (human) (UniProt P32248); test: cell-based or functional assay
HCRTR1 (human) = HCRTR1 (human) (UniProt O43613); test: cell-based or functional assay
LTB4R (human) = LTB4R (human) (UniProt Q15722); test: cell-based or functional assay
HTR2A (human) = HTR2A (human) (UniProt P28223); test: cell-based or functional assay
HTR1F (human) = HTR1F (human) (UniProt P30939); test: cell-based or functional assay
GPR119 (human) = GPR119 (human) (UniProt Q8TDV5); test: cell-based or functional assay
CCR9 (human) = CCR9 (human) (UniProt P51686); test: cell-based or functional assay
AGTR1 (human) = AGTR1 (human) (UniProt P30556); test: cell-based or functional assay
NPSR1b (human) = NPSR1b (human) (UniProt Q6W5P4); test: cell-based or functional assay
PTGER2 (human) = PTGER2 (human) (UniProt P43116); test: cell-based or functional assay
HTR1A (human) = HTR1A (human) (UniProt P08908); test: cell-based or functional assay
EBI2 (human) = EBI2 (human) (UniProt P32249); test: cell-based or functional assay
NMBR (human) = NMBR (human) (UniProt P28336); test: cell-based or functional assay
PROKR2 (human) = PROKR2 (human) (UniProt Q8NFJ6); test: cell-based or functional assay
HCRTR2 (human) = HCRTR2 (human) (UniProt O43614); test: cell-based or functional assay
MRGPRX1 (human) = MRGPRX1 (human) (UniProt Q96LB2); test: cell-based or functional assay
CXCR3 (human) = CXCR3 (human) (UniProt P49682); test: cell-based or functional assay
NMU1R (human) = NMU1R (human) (UniProt Q9HB89); test: cell-based or functional assay
ADRA2B (human) = ADRA2B (human) (UniProt P18089); test: cell-based or functional assay
CCR5 (human) = CCR5 (human) (UniProt P51681); test: cell-based or functional assay
ADRB1 (human) = ADRB1 (human) (UniProt P08588); test: cell-based or functional assay
GHSR (human) = GHSR (human) (UniProt Q92847); test: cell-based or functional assay
DRD5 (human) = DRD5 (human) (UniProt P21918); test: cell-based or functional assay
GALR1 (human) = GALR1 (human) (UniProt P47211); test: cell-based or functional assay
(CR)L-RAMP3 (human) = (CR)L-RAMP3 (human) (UniProt Q16602); test: cell-based or functional assay
GPR35 (human) = GPR35 (human) (UniProt Q9HC97); test: cell-based or functional assay
MCHR2 (human) = MCHR2 (human) (UniProt Q969V1); test: cell-based or functional assay
GRPR (human) = GRPR (human) (UniProt P30550); test: cell-based or functional assay
[1] = biological target: human cloned somatostatin receptor 2 (human) (UniProt P30874); test: cell-based or functional assay
DRD4 (human) = DRD4 (human) (UniProt P21917); test: cell-based or functional assay
AVPR1A (human) = AVPR1A (human) (UniProt P37288); test: cell-based or functional assay
TACR3 (human) = TACR3 (human) (UniProt P29371); test: cell-based or functional assay
(CR)R-RAMP3 (human) = (CR)R-RAMP3 (human) (UniProt P30988); test: cell-based or functional assay
ADRB2 (human) = ADRB2 (human) (UniProt P07550); test: cell-based or functional assay
MCHR1 (human) = MCHR1 (human) (UniProt Q99705); test: cell-based or functional assay
CXCR1 (human) = CXCR1 (human) (UniProt P25024); test: cell-based or functional assay
GCGR (human) = GCGR (human) (UniProt P47871); test: cell-based or functional assay
ADORA3 (human) = ADORA3 (human) (UniProt P0DMS8); test: cell-based or functional assay
HTR5A (human) = HTR5A (human) (UniProt P47898); test: cell-based or functional assay
DRD1 (human) = DRD1 (human) (UniProt P21728); test: cell-based or functional assay
(CR)R-RAMP2 (human) = (CR)R-RAMP2 (human) (UniProt P30988); test: cell-based or functional assay
NTSR1 (human) = NTSR1 (human) (UniProt P30989); test: cell-based or functional assay
PTGFR (human) = PTGFR (human) (UniProt P43088); test: cell-based or functional assay
[2] = biological target: human cloned somatostatin receptor 3 (human) (UniProt P32745); test: 125I-Tyr11-SRIF-14 displacement
[3] = biological target: human cloned somatostatin receptor 5 (human) (UniProt P35346); test: 125I-Tyr11-SRIF-14 displacement
[4] = biological target: human cloned somatostatin receptor 2 (human) (UniProt P30874); test: 125I-Tyr11-SRIF-14 displacement
[5] = biological target: human cloned somatostatin receptor 1 (human) (UniProt P30872); test: 125I-Tyr11-SRIF-14 displacement
Sequence of human cloned somatostatin receptor 1 (human) (P30872 whole entry): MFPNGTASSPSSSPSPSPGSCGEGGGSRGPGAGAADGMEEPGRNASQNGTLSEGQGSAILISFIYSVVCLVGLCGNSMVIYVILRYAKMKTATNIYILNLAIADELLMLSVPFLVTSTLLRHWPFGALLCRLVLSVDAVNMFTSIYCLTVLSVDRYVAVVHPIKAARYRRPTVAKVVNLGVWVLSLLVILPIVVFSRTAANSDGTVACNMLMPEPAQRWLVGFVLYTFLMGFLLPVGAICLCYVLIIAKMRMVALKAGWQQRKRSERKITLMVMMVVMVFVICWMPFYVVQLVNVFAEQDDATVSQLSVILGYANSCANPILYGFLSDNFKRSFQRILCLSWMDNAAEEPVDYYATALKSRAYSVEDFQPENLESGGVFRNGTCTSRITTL

Sequence of human cloned somatostatin receptor 2 (human) (P30874 whole entry): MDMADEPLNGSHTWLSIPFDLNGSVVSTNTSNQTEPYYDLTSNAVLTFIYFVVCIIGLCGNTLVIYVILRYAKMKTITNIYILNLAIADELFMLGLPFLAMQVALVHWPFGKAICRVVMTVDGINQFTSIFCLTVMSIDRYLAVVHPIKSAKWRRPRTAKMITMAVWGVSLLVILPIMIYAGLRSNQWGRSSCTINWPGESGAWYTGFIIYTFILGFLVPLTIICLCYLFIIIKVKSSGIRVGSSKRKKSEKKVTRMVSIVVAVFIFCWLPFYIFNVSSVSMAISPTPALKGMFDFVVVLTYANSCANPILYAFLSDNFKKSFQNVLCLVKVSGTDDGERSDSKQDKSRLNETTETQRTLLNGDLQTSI
Sequence of human cloned somatostatin receptor 5 (human) (P35346 whole entry): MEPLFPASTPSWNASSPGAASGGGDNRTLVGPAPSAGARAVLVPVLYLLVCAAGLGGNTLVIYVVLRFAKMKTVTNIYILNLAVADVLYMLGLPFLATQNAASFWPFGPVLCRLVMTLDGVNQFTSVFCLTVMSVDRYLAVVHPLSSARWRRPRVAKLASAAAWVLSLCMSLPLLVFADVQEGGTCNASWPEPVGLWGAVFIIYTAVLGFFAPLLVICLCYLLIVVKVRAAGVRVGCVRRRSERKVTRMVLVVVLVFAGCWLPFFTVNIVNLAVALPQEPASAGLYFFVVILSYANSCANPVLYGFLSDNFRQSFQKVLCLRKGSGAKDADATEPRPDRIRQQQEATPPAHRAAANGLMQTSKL
Sequence of (CR)L-RAMP3 (human) (Q16602 23-461, chain 1 of 2): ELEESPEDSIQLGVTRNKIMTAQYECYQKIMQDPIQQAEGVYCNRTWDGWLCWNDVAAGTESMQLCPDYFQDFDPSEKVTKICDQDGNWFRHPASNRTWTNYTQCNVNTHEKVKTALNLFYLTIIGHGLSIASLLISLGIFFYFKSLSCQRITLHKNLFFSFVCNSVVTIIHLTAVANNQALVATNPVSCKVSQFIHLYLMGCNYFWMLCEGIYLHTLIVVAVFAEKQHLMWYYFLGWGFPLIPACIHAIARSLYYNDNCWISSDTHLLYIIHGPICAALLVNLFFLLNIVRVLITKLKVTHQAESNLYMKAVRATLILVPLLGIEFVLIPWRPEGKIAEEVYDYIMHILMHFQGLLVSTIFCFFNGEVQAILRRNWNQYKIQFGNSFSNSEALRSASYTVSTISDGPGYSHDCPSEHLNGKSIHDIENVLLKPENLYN
Sequence of (CR)L-RAMP3 (human) (O60896 24-148, chain 2 of 2, further chain): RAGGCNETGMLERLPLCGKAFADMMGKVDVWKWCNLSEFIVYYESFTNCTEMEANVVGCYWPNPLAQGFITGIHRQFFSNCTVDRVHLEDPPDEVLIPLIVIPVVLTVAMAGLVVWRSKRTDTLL
Sequence of VIPR1 (human) (P32241 31-457): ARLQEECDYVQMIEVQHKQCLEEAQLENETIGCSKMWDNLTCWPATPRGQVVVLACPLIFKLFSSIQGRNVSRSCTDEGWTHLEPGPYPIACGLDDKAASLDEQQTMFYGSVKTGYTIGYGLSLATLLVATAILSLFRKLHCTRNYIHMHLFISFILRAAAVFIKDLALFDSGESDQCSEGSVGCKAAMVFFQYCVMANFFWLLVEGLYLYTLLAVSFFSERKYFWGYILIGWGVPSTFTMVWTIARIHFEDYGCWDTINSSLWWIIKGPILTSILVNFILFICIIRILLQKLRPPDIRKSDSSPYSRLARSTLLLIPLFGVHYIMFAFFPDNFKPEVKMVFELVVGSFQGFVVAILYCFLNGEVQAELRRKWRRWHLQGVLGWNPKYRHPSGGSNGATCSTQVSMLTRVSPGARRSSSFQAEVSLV
Sequence of DRD1 (human) (P21728 whole entry): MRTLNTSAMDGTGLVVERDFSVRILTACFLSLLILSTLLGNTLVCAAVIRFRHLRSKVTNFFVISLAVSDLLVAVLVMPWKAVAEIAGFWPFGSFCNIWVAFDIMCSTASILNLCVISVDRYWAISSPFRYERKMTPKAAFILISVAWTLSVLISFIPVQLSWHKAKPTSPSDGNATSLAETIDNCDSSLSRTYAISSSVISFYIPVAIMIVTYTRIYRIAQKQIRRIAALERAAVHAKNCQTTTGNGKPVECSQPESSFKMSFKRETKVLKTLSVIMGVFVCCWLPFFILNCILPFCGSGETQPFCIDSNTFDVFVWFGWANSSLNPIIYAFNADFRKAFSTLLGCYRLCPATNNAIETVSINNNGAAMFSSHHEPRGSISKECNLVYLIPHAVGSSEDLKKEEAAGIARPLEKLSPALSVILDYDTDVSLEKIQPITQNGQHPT
Sequence of OPRL1 (human) (P41146 whole entry): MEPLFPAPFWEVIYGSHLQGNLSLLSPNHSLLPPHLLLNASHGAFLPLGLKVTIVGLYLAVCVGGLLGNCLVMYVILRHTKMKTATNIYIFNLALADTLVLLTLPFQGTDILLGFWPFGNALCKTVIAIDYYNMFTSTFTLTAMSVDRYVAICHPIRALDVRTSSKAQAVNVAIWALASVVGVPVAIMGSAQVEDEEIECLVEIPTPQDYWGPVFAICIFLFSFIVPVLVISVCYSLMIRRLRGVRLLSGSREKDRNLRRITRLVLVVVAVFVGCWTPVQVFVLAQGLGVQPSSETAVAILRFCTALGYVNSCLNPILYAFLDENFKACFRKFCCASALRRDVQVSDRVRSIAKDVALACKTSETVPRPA
Sequence of CHRM3 (human) (P20309 whole entry): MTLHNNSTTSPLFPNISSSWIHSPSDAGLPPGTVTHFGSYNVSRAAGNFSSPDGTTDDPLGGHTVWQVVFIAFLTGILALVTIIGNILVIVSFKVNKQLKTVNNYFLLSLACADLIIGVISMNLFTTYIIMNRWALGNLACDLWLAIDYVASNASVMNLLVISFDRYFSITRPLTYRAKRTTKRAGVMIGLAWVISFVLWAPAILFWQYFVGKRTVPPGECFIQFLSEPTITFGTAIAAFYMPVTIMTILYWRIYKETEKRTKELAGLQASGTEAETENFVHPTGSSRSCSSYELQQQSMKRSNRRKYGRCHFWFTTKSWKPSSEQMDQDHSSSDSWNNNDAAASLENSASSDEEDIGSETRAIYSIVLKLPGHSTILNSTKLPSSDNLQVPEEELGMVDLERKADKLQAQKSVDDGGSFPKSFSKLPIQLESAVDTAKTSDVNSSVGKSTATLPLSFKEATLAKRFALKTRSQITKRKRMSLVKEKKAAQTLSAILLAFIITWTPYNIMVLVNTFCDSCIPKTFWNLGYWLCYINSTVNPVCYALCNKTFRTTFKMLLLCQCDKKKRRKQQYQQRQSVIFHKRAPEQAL
Sequence of PROKR2 (human) (Q8NFJ6 whole entry): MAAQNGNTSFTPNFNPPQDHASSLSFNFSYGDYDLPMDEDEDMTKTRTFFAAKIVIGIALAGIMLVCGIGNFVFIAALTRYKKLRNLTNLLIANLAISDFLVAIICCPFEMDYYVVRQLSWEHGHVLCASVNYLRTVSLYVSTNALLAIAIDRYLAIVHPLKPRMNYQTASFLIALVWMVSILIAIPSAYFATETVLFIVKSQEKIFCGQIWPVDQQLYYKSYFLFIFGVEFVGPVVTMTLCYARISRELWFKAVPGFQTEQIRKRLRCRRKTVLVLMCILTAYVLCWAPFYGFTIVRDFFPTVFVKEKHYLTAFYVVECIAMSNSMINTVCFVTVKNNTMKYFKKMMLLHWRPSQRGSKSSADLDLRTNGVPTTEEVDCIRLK
Sequence of ADORA3 (human) (P0DMS8 whole entry): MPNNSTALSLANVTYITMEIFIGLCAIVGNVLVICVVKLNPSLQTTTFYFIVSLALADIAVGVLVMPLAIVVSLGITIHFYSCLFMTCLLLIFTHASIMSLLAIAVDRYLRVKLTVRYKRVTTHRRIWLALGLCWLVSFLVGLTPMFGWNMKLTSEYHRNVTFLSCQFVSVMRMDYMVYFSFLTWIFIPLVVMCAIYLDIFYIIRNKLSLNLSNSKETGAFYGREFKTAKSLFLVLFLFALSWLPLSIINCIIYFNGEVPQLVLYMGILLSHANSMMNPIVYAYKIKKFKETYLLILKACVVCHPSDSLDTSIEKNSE
Sequence of CCR5 (human) (P51681 whole entry): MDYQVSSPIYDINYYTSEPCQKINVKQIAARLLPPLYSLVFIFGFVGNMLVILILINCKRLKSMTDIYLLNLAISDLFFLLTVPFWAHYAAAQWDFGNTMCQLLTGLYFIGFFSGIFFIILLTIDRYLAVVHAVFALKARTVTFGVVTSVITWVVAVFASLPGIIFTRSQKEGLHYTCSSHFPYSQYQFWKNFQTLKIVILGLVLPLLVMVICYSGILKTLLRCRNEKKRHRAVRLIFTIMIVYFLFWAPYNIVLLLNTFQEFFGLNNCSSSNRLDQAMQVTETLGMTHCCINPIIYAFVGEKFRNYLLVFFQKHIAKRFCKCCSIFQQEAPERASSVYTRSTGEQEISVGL
Sequence of GPR119 (human) (Q8TDV5 whole entry): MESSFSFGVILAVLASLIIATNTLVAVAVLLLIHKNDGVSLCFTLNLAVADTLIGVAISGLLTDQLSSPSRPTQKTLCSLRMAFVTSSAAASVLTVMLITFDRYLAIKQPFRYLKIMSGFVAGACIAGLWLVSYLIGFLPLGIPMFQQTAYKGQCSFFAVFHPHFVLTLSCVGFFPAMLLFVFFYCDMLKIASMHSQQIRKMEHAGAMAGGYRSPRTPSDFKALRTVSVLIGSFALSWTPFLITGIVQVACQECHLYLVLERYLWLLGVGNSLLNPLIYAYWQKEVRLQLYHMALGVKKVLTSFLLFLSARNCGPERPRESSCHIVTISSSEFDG

For {DOTA}-[dF]RCF[dW]KTF[N(2-mercaptoethyl)Gly]-NH2 (disulfide 3-9; also: Ga complex of DOTA) [SEQ ID NO: 4], the % Activity (agonist mode, 1 µM) (CCR6 (human)) was 0%, the % Activity (agonist mode, 1 µM) (OPRM1 (human)) was 1% and the % Activity (agonist mode, 1 µM) (CCR2 (human)) was 1%. The % Activity (agonist mode, 1 µM) (HRH3 (human)) was -2%, the % Activity (agonist mode, 1 µM) (CCR1 (human)) was 3% and the % Activity (agonist mode, 1 µM) (VIPR1 (human)) was 0%. The % Activity (agonist mode, 1 µM) (OPRL1 (human)) was -3%, the % Activity (agonist mode, 1 µM) (CMKLR1 (human)) was 0% and the % Activity (agonist mode, 1 µM) (ADRA2A (human)) was 3%. It also gave a % Activity (agonist mode, 1 µM) (CHRM3 (human)) of 1%, a % Activity (agonist mode, 1 µM) (CCR7 (human)) of 1% and a % Activity (agonist mode, 1 µM) (HCRTR1 (human)) of 0%. It also gave a % Activity (agonist mode, 1 µM) (LTB4R (human)) of -1%, a % Activity (agonist mode, 1 µM) (HTR2A (human)) of -1% and a % Activity (agonist mode, 1 µM) (HTR1F (human)) of 0%. For the same binder, the % Activity (agonist mode, 1 µM) (GPR119 (human)) was 19%, the % Activity (agonist mode, 1 µM) (CCR9 (human)) was 0% and the % Activity (agonist mode, 1 µM) (AGTR1 (human)) was -2%. The % Activity (agonist mode, 1 µM) (NPSR1b (human)) was -1%, the % Activity (agonist mode, 1 µM) (PTGER2 (human)) was 1% and the % Activity (agonist mode, 1 µM) (HTR1A (human)) was 0%. The % Activity (agonist mode, 1 µM) (EBI2 (human)) was -1%, the % Activity (agonist mode, 1 µM) (NMBR (human)) was 1% and the % Activity (agonist mode, 1 µM) (PROKR2 (human)) was 2%. It also gave a % Activity (agonist mode, 1 µM) (HCRTR2 (human)) of 0%, a % Activity (agonist mode, 1 µM) (MRGPRX1 (human)) of 0% and a % Activity (agonist mode, 1 µM) (CXCR3 (human)) of -1%. The % Activity (agonist mode, 1 µM) (NMU1R (human)) was 1%, the % Activity (agonist mode, 1 µM) (ADRA2B (human)) was -1% and the % Activity (agonist mode, 1 µM) (CCR5 (human)) was 1%. For the same binder, the % Activity (agonist mode, 1 µM) (ADRB1 (human)) was 1%, the % Activity (agonist mode, 1 µM) (GHSR (human)) was -1% and the % Activity (agonist mode, 1 µM) (DRD5 (human)) was -2%. It also gave a % Activity (agonist mode, 1 µM) (GALR1 (human)) of 2%, a % Activity (agonist mode, 1 µM) ((CR)L-RAMP3 (human)) of 0% and a % Activity (agonist mode, 1 µM) (GPR35 (human)) of 1%. The % Activity (agonist mode, 1 µM) (MCHR2 (human)) was 1%, the % Activity (agonist mode, 1 µM) (GRPR (human)) was 0% and the % Activity (agonist mode, 1 µM) [1] was 9%. The % Activity (agonist mode, 1 µM) (DRD4 (human)) was 0%, the % Activity (agonist mode, 1 µM) (AVPR1A (human)) was 0% and the % Activity (agonist mode, 1 µM) (TACR3 (human)) was 1%. It also gave a % Activity (agonist mode, 1 µM) ((CR)R-RAMP3 (human)) of -13%, a % Activity (agonist mode, 1 µM) (ADRB2 (human)) of 0% and a % Activity (agonist mode, 1 µM) (MCHR1 (human)) of -1%. It also gave a % Activity (agonist mode, 1 µM) (CXCR1 (human)) of 0%, a % Activity (agonist mode, 1 µM) (GCGR (human)) of -2% and a % Activity (agonist mode, 1 µM) (ADORA3 (human)) of -6%. It also gave a % Activity (agonist mode, 1 µM) (HTR5A (human)) of 0%, a % Activity (agonist mode, 1 µM) (DRD1 (human)) of 0% and a % Activity (agonist mode, 1 µM) ((CR)R-RAMP2 (human)) of 0%. The % Activity (agonist mode, 1 µM) (NTSR1 (human)) was 3%, the % Activity (agonist mode, 1 µM) (PTGFR (human)) was 0% and the IC50 [2] was 1 nM. It also gave an IC50 [3] of 140 nM, a Ki [3] of 78 nM and an IC50 [4] of 56 nM. The Ki [4] was 30 nM, the IC50 [5] was over 1000 nM and the Ki [5] was 880 nM.
